# From the supplement of paper PMC12042874
# ± gives the uncertainty stated by the source.
# Assay: amyloid nucleation score (Sup35N fusion, yeast selection) (log enrichment); library NNK2; higher = more nucleation; inactive = no reads after selection
# Outline: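 Yeast lacking psi expressed peptides of 20 random codons fused to Sup35N, received 100 μM copper sulfate for 24 hours, and were then grown for 7 days at 30°C on medium lacking adenine and uracil. Illumina sequencing of input and output plasmid inserts provided the reads. Nucleation scores are DiMSum log enrichments of output over input, centred on the mode of non-aggregating sequences. Any sequence with under 100 input reads was excluded.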
row,Substance,amyloid nucleation score
1,DQVLHCSLDQSVGGSDQL,inactive
2,NLKRVKRMIPYYTTQ,-0.343 ± 0.33
3,ISSKITRLSPGGLVS,inactive
4,WQIRWVYVSIWSQFAQTRGV,0.462 ± 0.29
5,VMLNWKMVYRTRDFNLQSYD,1.85 ± 0.15
6,YTGRSDVNSVLRV,0.183 ± 1
7,NLSLAFALMTSVVNHNMWSG,5.661 ± 0.044
8,GFKDCV,0.263 ± 0.22
9,LSGLEDMSISSNDYSSDVAR,0.45 ± 0.8
10,FRTSYRSCCVNTYREVVVYA,-0.501 ± 0.45
11,KKRQCGMVGLNLVGQYLHSF,-1.3 ± 0.62
12,ELILFITYTCIFWADCGRLY,-2.12 ± 1.1
13,SFCGLTVILGRSSSAWGLPT,6.959 ± 0.053
14,HRFSMQALYRNIQEWSCEAW,2.07 ± 0.12
15,SWCACSLGSQYGTMSGWLLY,0.162 ± 0.37
16,WMVIHSGADCQCL,0.605 ± 0.36
17,YQLNWVKAASCSISLYFTFL,3.87 ± 0.082
18,SMLDILS,-1.79 ± 0.62
19,RPKYIWDCWCTCFHFS,3.63 ± 0.088
20,RLALWVKSSYVFIQESEELH,3.2 ± 0.1
21,IMCCTRLLNSFSAITIVHIA,-0.03 ± 0.43
22,SHEIVCTSVRSLTIFKQVQR,3.24 ± 0.059
23,MITVFGLVTFVVIVSTESPI,3.8 ± 0.075
24,YFTGSPVVHRLLSYNLFLRF,5.726 ± 0.039
25,RIASLTSLGGNMNCAVHSFE,-0.427 ± 1.1

row,Substance,amyloid nucleation score
1,SNGLMSACRWYLPAFLED,inactive
2,TFKSNLV,0.092 ± 0.17
3,LDMSQYYSSRVF,inactive
4,ARLRC,0.001 ± 0.28
5,SVDNGYVFSLVDPREYRFHL,-0.813 ± 0.76
6,VFDVHIYRPSVP,5.96 ± 0.069
7,FCSVTMHKKMN,-0.195 ± 0.38
8,LNVLISYMHRVWRYIVSAR,0.362 ± 0.35
9,KTFMCSFSQHVKGSGVFLTS,-0.346 ± 0.49
10,RCFIDLPCCQYLVQPRVGSG,-0.26 ± 1
11,WDSSPGISVVSIRLEQ,5.431 ± 0.036
12,GYNKLSLSL,-0.863 ± 0.64
13,GGQEIAYILTSVSSLSNPMW,3.24 ± 0.1
14,FFSTTYNHNSDFAWDQAELY,0.016 ± 1.1
15,SYNYLYILRCYYLDVHSFRT,-0.788 ± 0.76
16,MVLYKSRNRLSNYHRLAEST,-0.326 ± 1.1
17,EQRILRLSRSIESFSMNRNQ,-0.593 ± 0.64
18,VVEICFYW,6.258 ± 0.034
19,YNKNSKFLGRFDCSLFI,-1.04 ± 1.1
20,IHRILCHGVRASMLGGSVAL,0.067 ± 0.79
21,WYIRPSKTCEVSFGYPRRSW,-0.891 ± 1.1
22,QTGNFPIDHVQYCFFRITLS,-1.28 ± 0.62
23,VVDCMCSGLHWVQVGILSQP,1.19 ± 0.39
24,DYSVEGHLRMLLNKKRVGVE,-1.01 ± 0.76
25,FCNDRTTVGD,-0.538 ± 0.39

row,Substance,amyloid nucleation score
1,MLFAVDLVYGPDPLVNELTW,1.03 ± 0.4
2,SYFNVNWARFQVGYSLIVCL,6.131 ± 0.04
3,IIADCTVARARHCLE,0.276 ± 1
4,MMARFCVAFQHVIESNLGGS,-1.4 ± 0.44
5,SYLKYVDWQTFKVTWCAGGN,-0.38 ± 0.54
6,PHAHRNANLVWHQGKAPKGG,1.12 ± 0.53
7,TYRLDSWITGSRLV,-0.555 ± 0.76
8,VSSWGMYYWFS,0.06 ± 0.44
9,TVWDLPLVAFCKHGTDHLLS,-0.121 ± 1.1
10,GDSIDARGRVQAPQSKEGLR,1.12 ± 0.42
11,KRVSASDISSLYADVRIKE,-0.852 ± 0.76
12,FAYKNRNM,-0.307 ± 0.41
13,GIFCSVGMLTVCLLVRDKLV,inactive
14,GALTQSVLIYRH,2.12 ± 0.13
15,HSCRTYI,inactive
16,HATVHSSRCHSYHPGL,6.707 ± 0.054
17,IGVWMGCYTSLHCSIKCLEI,6.36 ± 0.086
18,RGLCVGSSARFCVY,0.691 ± 0.6
19,YLSLYGNGC,-0.627 ± 1.1
20,LAWGNHRVLRWSAPHNIRSR,0.93 ± 0.33
21,KCLDSFDMSDMYSR,-0.632 ± 1.1
22,LFNLACLRGRKTVWITDKLT,0.012 ± 0.5
23,VRLFTVGWRSGKNVGNTSDA,-0.263 ± 1.1
24,LWVARHIRIEFMLTFRIYKA,0.011 ± 1.1
25,FFIIMRYRLRDFTFVYSSPV,-0.627 ± 0.31

row,Substance,amyloid nucleation score
1,KWIRFWVKDAFRVGRCHIWG,0.038 ± 0.5
2,LIVCLFISFFAYELCYESAF,0.403 ± 0.62
3,VKFFSSVLSNDGFRSLGVCL,0.13 ± 1.1
4,QSHTGWYLVFV,0.05 ± 1
5,IMIMTGWS,-0.984 ± 0.44
6,LIGCLEQG,-0.156 ± 0.56
7,VLSNSEYVFTNR,-0.5 ± 0.28
8,DHVYICSSFAPKSTAMLC,1.55 ± 0.38
9,WYVLFSMMWA,-1.36 ± 0.78
10,RRVPEKGLLGLYSGGLIAEV,-0.299 ± 0.74
11,PLCHLLYRSLMFFTLSEVSC,0.042 ± 0.8
12,PSDSECISCSCLDRWYRVFE,2.94 ± 0.12
13,YSVQRCGYQDSKNNDVFLA,-0.043 ± 0.5
14,MIGGDGPRDV,0.745 ± 0.38
15,TPHGIYEHLPQEY,-0.273 ± 0.49
16,SPQRFDLGYGVYVCDTPK,-0.231 ± 0.38
17,LWSVYYMSVIIFPFGKHPKQ,7.149 ± 0.056
18,TFNACNK,0.349 ± 0.18
19,LLQILTNQKVNGTCSQRF,-1.48 ± 0.78
20,EFRWYNFLWY,-0.618 ± 1.1
21,STCFVCFFTYVNSYIVLFT,5.63 ± 0.082
22,PMFCFCPLCLWHKDCISINS,8.227 ± 0.078
23,MLRQYCASFALVRCLNVTDR,3.12 ± 0.13
24,CLAASSGVLYNEVQSYNTLV,inactive
25,VECIRSVLVFFVFWLRSIFA,-1.38 ± 0.55

row,Substance,amyloid nucleation score
1,LLALSFLTVVFEFCLNSMMG,-1.28 ± 0.62
2,SRHYYRFHTFAVVGWLSLYW,-0.849 ± 1.1
3,LRLGRLPFMRSISVTCKNEL,1.91 ± 0.32
4,SCCISPVSVIMRPSY,3.79 ± 0.1
5,ACWKRMN,inactive
6,TIGPKFLLIIKMRCLWMNEE,0.105 ± 1.1
7,TSVGYMMLSNW,4.88 ± 0.095
8,LSIHLQRTQWYLLFEW,0.01 ± 0.39
9,WAATITDRYRCL,0.35 ± 0.35
10,KNNVCSHIPNLGSYYLF,0.736 ± 0.8
11,IFLEMKDHIIRATFNRLRFC,inactive
12,FGFKCSAVITICPGPSRLGS,5.12 ± 0.081
13,TMILVCRRAFKCYLTQDWSD,0.538 ± 0.3
14,HWRGFYS,-0.388 ± 1.1
15,PPLLSISYKRRRVMFHFHVF,inactive
16,AALCGLKFVRERKWRKSILS,0.345 ± 0.65
17,SGTSLRVTSNRRFDMYGVYG,-0.766 ± 0.5
18,DGVSAFVCTFRDAVVRSAME,4.29 ± 0.045
19,VKPHFRLGGNQNRPIPCSVS,0.318 ± 0.45
20,VAYVKACRTSGVHQLSTDHV,1.67 ± 0.34
21,WVVLLFKCFFEVLMLPLKVI,-0.29 ± 0.38
22,SRSFASPRYELMLATRTHEK,0.966 ± 0.57
23,NGCQV,0.545 ± 0.6
24,RNCRDNYYSWRFKHLNRDRD,-0.076 ± 0.61
25,CIRMLSVIYHCPL,4.85 ± 0.07

row,Substance,amyloid nucleation score
1,CRVFWKLKKRSIMHLPFDSG,1.32 ± 0.34
2,IVSLCFNNWGSYRVNGQYLY,6.564 ± 0.033
3,KAPRTIYPVVLQPAS,-0.484 ± 0.33
4,AFRPVSSIGLCRWYMKRWNS,0.542 ± 0.19
5,MYIGELIAPVCCLRSQFTPC,5.18 ± 0.075
6,RLWYHVICVDYDGGEYRSSG,0.388 ± 0.36
7,VSITISTTCSNKGS,1.29 ± 0.22
8,NWLLN,-0.492 ± 0.76
9,CFTPFMLFCKDEV,-1.12 ± 0.55
10,DGGNDWRTKYSGTPVVWGTV,1.73 ± 0.13
11,VVMLVRT,3.87 ± 0.064
12,YDGANWRSKGWLDLFSIMKQ,-1.23 ± 0.75
13,PVDVIHSRFVTGHFD,-0.853 ± 0.78
14,IFCNTLCQIGFRRNVKASGN,-0.104 ± 0.5
15,VVLTHY,0.386 ± 0.34
16,IPTFSSLCLMLRTEGPRVDI,-1.05 ± 1.1
17,HFCYKMRLKDDCVCFKGYTI,4.03 ± 0.058
18,RIKRETHAAFNVYSIYAVRY,0.183 ± 0.3
19,VDHQVFNHDHCGRIYVLCLG,-0.322 ± 0.31
20,LYVQLQMEVVGPGVRLTGSL,3.19 ± 0.077
21,STPLILVRCNSYL,-0.456 ± 0.28
22,PVKIGMFPVGRWQFKDQFGF,-0.704 ± 0.44
23,KCTFMTDFMIIDEVMYWNRC,1.35 ± 0.46
24,YISNYPNVRLALDPTTCAGM,-0.452 ± 0.48
25,VDILG,-0.094 ± 1

row,Substance,amyloid nucleation score
1,KGDGNRSDTDVFITHIFMYY,6.336 ± 0.048
2,MGRLNVYLNVRLISKVIGIQ,3.63 ± 0.053
3,MLIQVCALEGRYEVTQCVGG,1.82 ± 0.12
4,NSQTYTGCAVGYVLVNVMGL,6.474 ± 0.033
5,PECVLVSFLRRAFELFAMCN,inactive
6,PINVRNYKRVCGGMVV,inactive
7,LSRSRVINIYASAGWRFLGS,inactive
8,KCGRWPANAVYWHDTLSCAC,0.231 ± 0.31
9,WITVVRLIYLAFFQTGST,-0.867 ± 0.63
10,PIDFVLCSNNSSSWPVHKQN,2.36 ± 0.11
11,VHWSWIAVAGHKDRAPGVRR,1.21 ± 0.3
12,MRWLYFPLF,-0.801 ± 0.56
13,LGYCSSSILCPCCHKILFDA,-0.521 ± 0.21
14,RDYGQFCRSFGHLGLFLGSQ,inactive
15,PNFRVVFCLRSV,9.978 ± 0.024
16,SSVSRLR,-0.277 ± 0.74
17,HLYLPMYGIMFS,1.27 ± 0.15
18,NWCYTTSGHHRVTFGLQRLP,4.8 ± 0.052
19,FLMVVVGNVLPLSKCYALWY,-0.007 ± 0.55
20,YLSWHNFVYRLVYIYSGYFN,inactive
